Measured values taken from publication PMC4624786.

B1: unnamed (parent)
chain 1: MSMPDAMPLPGVGEELKQAKEIEDAEKYSFMATVTKAPKKQIQFADDMQEFTKFPTKTGRRSLSRSISQSSTDSYSSAASYTDSSDDEVSPREKQQTNSKGSSNFCVKNIKQAEFGRREIEIAEQDMSALISLRKRAQGEKPLAGAKIVGCTHITAQTAVLIETLCALGAQCRWSACNIYSTQNEVAAALAEAGVAVFAWKGESEDDFWWCIDRCVNMDGWQANMILDDGGDLTHWVYKKYPNVFKKIRGIVEESVTGVHRLYQLSKAGKLCVPAMNVNDSVTKQKFDNLYCCRESILDGLKRTTDVMFGGKQVVVCGYGEVGKGCCAALKALGAIVYITEIDPICALQACMDGFRVVKLNEVIRQVDVVITCTGNKNVVTREHLDRMKNSCIVCNMGHSNTEIDVTSLRTPELTWERVRSQVDHVIWPDGKRVVLLAEGRLLNLSCSTVPTFVLSITATTQALALIELYNAPEGRYKQDVYLLPKKMDEYVASLHLPSFDAHLTELTDDQAKYLGLNKNGPFKPNYYRY
chain 2: MATPSNLGSSVLASKTKTKKKHFVAQKVKLFRASDPLLSVLMWGVNHSINELSHVQIPVMLMPDDFKAYSKIKVDNHLFNKENMPSHFKFKEYCPMVFRNLRERFGIDDQDFQNSLTRSAPLPNDSQARSGARFHTSYDKRYVIKTITSEDVAEMHNILKKYHQYIVECHGVTLLPQFLGMYRLNVDGVEIYVIVTRNVFSHRLSVYRKYDLKGSTVAREASDKEKAKELPTLKDNDFINEGQKIYIDDSNKKIFLEKLKKDVEFLAQLKLMDYSLLVGIHDVERAEQEEVECEENEGEEEGESDGAHPIGTPPDSPGNTLNSSPPLAPGEFDPNIDVYAIKCHENAPRKEVYFMAIIDILTHYDAKKKAAHAAKTVKHGAGAEISTVNPEQYSKRFLDFIGHILT
B2: unnamed (parent)
chain 1: B1 chain 1
chain 2: MASASSGPAAAGFSSLDAGAPAGTAAASGIKRATVSEGPSASVMPVKKIGHRSVDSSGETTYKKTTSSALKGAIQLGITHTVGSLSTKPERDVLMQDFYVVESIFFPSEGSNLTPAHHYNDFRFKTYAPVAFRYFRELFGIRPDDYLYSLCSEPLIELSNSGASGSLFYVSSDDEFIIKTVQHKEAEFLQKLLPGYYMNLNQNPRTLLPKFYGLYCVQAGGKNIRIVVMNNLLPRSVKMHMKYDLKGSTYKRRASQKEREKTLPTFKDLDFLQDIPDGLFLDADMYSALCKTLQRDCLVLQSFKIMDYSLLMSIHNMDHAQREPTSNDTQYSADTRRPAPQKALYSTAMESIQGEARRGGTVETEDHMGGIPARNNKGERLLLYIGIIDILQSYRFVKKLEHSWKALVHDGDTVSVHRPGFYAERFQRFMCNTVFKKIPLKPSPTKKFRSGPSFSRRSGPSGNSCTSQLMASGEHRAQVTTKAEVEPDVHLGRPDVLPQTPPLEEISEGSPVPGPSFSPVVGQPLQILNLSSTLEKLDVAESEFTH

Variants of: B1
Assay: co-immunoprecipitation, Western blot quantification
Settings: with partner chain of the complex shown; COS-7 cells; n = 4; parent: 100; read off a plot

percent of parent	Variant
107 % of WT	chain 1 T82A
95 % of WT	chain 1 S64A
79 % of WT	chain 1 S80A
67 % of WT	chain 1 T72A
42 % of WT	chain 1 S74G
71 % of WT	chain 1 S66A
75 % of WT	chain 1 S70A
51 % of WT	chain 1 S76G
96 % of WT	chain 1 S85A
3 % of WT	chain 1 S71A
3 % of WT	chain 1 S68A
130 % of WT	chain 1 S90A
100 % of WT	chain 1 S84A
11 % of WT	chain 1 S77A

Variants of: B2
Assay: as above
Settings: with partner chain of the complex shown; COS-7 cells; n = 4; parent: 100; read off a plot

percent of parent	Variant
65 % of WT	chain 1 S77A
81 % of WT	chain 1 S85A
14 % of WT	chain 1 S74G
120 % of WT	chain 1 S90A
3 % of WT	chain 1 S71A
49 % of WT	chain 1 S66A
83 % of WT	chain 1 S64A
26 % of WT	chain 1 T82A
90 % of WT	chain 1 T72A
100 % of WT	chain 1 S76G
50 % of WT	chain 1 S70A
43 % of WT	chain 1 S84A
2 % of WT	chain 1 S68A
57 % of WT	chain 1 S80A
